Laboratory results from the DeepSol protein solubility set.

test: soluble on expression in E. coli; label from the status in PepcDB or PDB records

Sequence	soluble on expression in E. coli
MGSDKIHHHHHHMCNSYLEYTAAGVSDLRPYQPGKPLAELERELGIRDAIKLASNENPLGPSPLALAAVREVLPALAQYPEGSAPELRALLARQLDLDPGQFIFGNGSDQVVELAVRALAGPGTEVIVSQYAFAAYAIAAQASGATVRVAPARDYGHDLDAMASLLNANTRLVFIANPNNPTGTYLTADALETFIDSVPSHALVVLDEAYLELMDAADYPDGRRWLRRFGNLMLTRTFSKAYGLAGLRCGYGIGHPDLMAVLERVRQPFNVNTLAQVAAHAALTDRAHLQATLANNRQGIVALRDGLCNLGLTILPPAGNFTAFAVPGGGQRVYEALLLRGVIVRPLTPYGMPDHLRVSVGLPVENQRFLTMLGEVL	not soluble
MGSDKIHHHHHHMSNAEWLNALETPFLLIDEFRFQRNIDRLYQRTKNLGSQVRPHLKTLRSIEAGRYLLKDSASPATVSTLAEAEAFAGAGYTNLLYAVGIAPHKLPRIANLIHKGVNLHILLDSVEQARAVTDYALANNVTFSVFIEIDCDGHRGGIPPESDALLELAQQIDGNGATLTGLLAHAGESYACRTDEAIRAAARAECAAINIAGRRVRALGIACPVLSVGATPTAHFAEDLTGITEVRAGVFTTFDLVMKNVGVCSLDDIALSVVSTVIGHNREKGWVFIDAGWMALSRDRGTASQAKDYGYGLVCDLHGSPYHDLCVTVTNQEHGIIALPTDSGFSVDNFPVGTRLRILPNHACATAAMHQHYQVLKSHRHEQETWQRITGW	not soluble
MGSDKIHHHHHHMPESAEAQVKEALLALLKDRDIQHITMKEIAEKAKVSRGSLYLYYEDKFSIIEDVIEDMKEGLGKALFDAFSHMDTLHLNKKRQTVHPTLSFVHEHRSFFSVMMNRGHFHRFFKDVFQQDVLLAPIHVNLTPIERDIYGHYRALYTYAIILYWLNEDAAASPEAISQKVWELVSQKRFYWLFGKAVPGEREKEKQIDRRVVRTREALQKAFLDVLAEKQDYAGITISDITRKSNIRRATFYDHYANKEELLQTMIQRSCAEIIDHLTIASSPNEFSLKEAEKALAILLSALSNMPIVHFLNREWGVPHVIPDMFKALESFYLHQQTDIHAEKKLYAHYVSAMIIGLLLYRLDEGKAHPPEVLAREFLQFLDVKKYKVVLL	not soluble
MSLQSSIYRIRHLAKPAYREEFKGDIECSTAAYKEVLEDTSTDSTSKLPLEAKFGKMSIIKLVLLLIISTIIYANDKNISNLHITSDSLIIDRTKQKAAYLGNVIVYFDNAILRTKELYIFYKTIDEKQTIDHIVVPTKLTVERKINNELLLADSAKYFCDNKQLILLGNVILQRDDNVLKTNKLIYYVDIIKK	not soluble
MLIRTEAPADILTIDRLLKHAFPTDAEANLVMRLRENGKLTLSLVACTDEGEVIGHALFSPVTLNGEDLSWQGLAPLAVHEDYRRQGIGAELIKEGFESLRDFGYPVCVVLGEPNYYARQGFNAGEEMGFECAWEVPEGAFRVAELVEGQCTGRSGRIDYAPEFSEL	not soluble
MLAPWQPLLEWWFGWGTSAQAVADEKSTLWFGKHYDADAHALFGDLVEHALAGGLEEWQQTPQGWLGLLILLDQLPRMIYRDTPRAFEGDRRAQVVAMQGLQKGWDYQLLPIQRVFVLLVLEHAEVLDWQNLCVERYRMLLDEQPEANRRLFEGFLDYAEQHQRVIARFGRFPHRNLVLERPSTSEEMDFLLEPGSRF	not soluble
MKVWRVEKREEGWRLDQFLKEKTPSWISRSMIQKAIKEGKVKVNGQIKKPSYKLKEGEIVEVDLPEKPQEATVQPEEIELKVLYEDRDIIVIDKPGDMIVHPVPSKLSGTLVNALLHHCKDLQGVGGKLRPGIVHRLDKETSGVIVVAKNDFAHQSLSKQFKDRKVKKTYILLVKGKMKNDEGVIDLPLARHPVLRIKMAVVETGKEAITEYRVLKRFDDVATLVLAFPKTGRTHQIRVHMKSLGHPIMGDKIYGKPKEDEIFGIKRQMLHALKLGFFHPRTGEWMEFVSPLPEDFKEAIRRIHEYVRERS	soluble
MGSDKIHHHHHHMEGNLKHNNGYCVICEKEATFIEHNDWLRDHYLCSTCHSIPRQRALIHVLNTFFPKWDSYHIHESSPGGITTQLLIKNCKNYTYSQYFKNYPLGQYFQGIRCENLENMTFQDESFDLFITQDVFEHVMEPNKAFKEIERVLKPGGAHVFTVPWYHTLPKTLQRARINEDGIEYIEEPIYHGNPIDENGSLVTFDWGQDMIEYIYTHANMYTLVYLQKDKSLGLDAEFLHVFISRKQENNF	not soluble
MSLNDNNTILGFDVNLICDFFLNTERQGPGSPEVTLKALSFIDNLTNKSLIADLGCGTGGQTMILAQHVPGKITGIDFFPGFIERFNKNAEKLNLQNRVKGIVGSMDDLSFEKDSLDLIWSEGAIYNIGFERGLKEWRNYLKPGGYLAVSESVWFTDQRPAEIHDFWMSAYTEIDTVPNKVAQIQKAGYIPVATFILPENCWIEHYFAPQAKAEEIFRRKHAGSRIVEELITSNHHEAELYSKYKAYYGYAFFICKKGFSLREGHHHHHH	soluble
MSRHWPLFDLRITTPRLQLQLPTEELCDQLIDTILEGVHDPDRMPFSVPWTRASREDLPFNTLSHLWQQLAGFKRDDWSLPLAVLVDGRAVGVQALSSKDFPITRQVDSGSWLGLRYQGHGYGTEMRAAVLYFAFAELEAQVATSRSFVDNPASIAVSRRNGYRDNGLDRVAREGAMAEALLFRLTRDDWQRHRTVEVRVDGFDRCRPLFGPLEPPRY	soluble
MSTHLQGSLFDQTDELGLGPLDGLRRTVLGAGAWIDLLPGWLSGADALFERLAADVPWRAERRKMYDQTVDVPRLLAYYRAGDTLPHPVLAEARDALSAHYVAELGEPFTTAGLCYYRDGRDSVAWHGDRIGRGAREDTMVAILSVGAPRDLALRPRGGGDVLRRPLGHGDLIVMGGSCQRTWEHAIPKSTRAAGPRISIQFRPSGVNLEHHHHHH	soluble
MSELTIGLILPDVLGTYGDDGNALVLRQRARLRGISAEIHTVRLGEAVPEGLDLYCLGGGEDTAQILAAEHLNNDRGLRRAADSGRPILGICAGLQVLGRSFRASGKIVEGVGLIDATTASLAKRTIGELQSTPTAAGFTAELTEPLTGFENHMGATILGPDAQPLGAVTRGVGNTDLHGITTASVSDEQVSYEGAVQGNVVCTYMHGPALARNPQLADLLLAKAMGIALADLAPLDLPVVDQLRKERLA	not soluble
MGSDKIHHHHHHMSISLATISGRVHAGERISDEEALFLFESRDPLAVGELAAAVNRRRNGDRVFFNVNRHINHTNICVNRCSFCAFYRAADEPGAYLYDLEEIRNRAAEAHAQGATEIHIVGGLHPDLPFDFYLAMLRTVKEVSPDLHVKAFTAVEIEYLSRLAGLSTAETLTVLKEAGLGSLPGGGAEIFAPAVRNRLCPEKISGDKWLAIMEEVHRAGLKSNATMLYGHIESYADRVDHMRRLRELQDRTGGFQVFIPLAFQKDNNPLGHLKRPGPGGVDALLTLAVARIYLDNFANIKAYWVMLGVKIAQTSLAFGVNDLDGTVVEEKIGHDAGAASPQTMGRDEIVSLIRTAGRVPVERDTLYNELRVY	not soluble
MGSDKIHHHHHHMLLFQDLRKDIYEIVSKRFRISENDVYLDDTGHSDITIRVFRILKSPDGGENAVMEIVRSISEKDYVEKALSEGGYINVWIKRTYMLREVLESIEKSGTYPDVFQEAERVSVEHTSANPTGPLHIGRARNSIIGDSIYRILSRYGYRTVRQYFVNDSGKQMISLYTAYIKYGGPITIENLLENYQKIYREMEKDQSIEKEIEKNIERYENADPEVFGTLRKIAGVMLDGIASTLKRIGIEFDEFDWESDLLLNGSVRKAIDMLETKEEDSARYIEISGKKVFLTRKDGTTLYFARDIAYHLFKAENSEWIIDVLGEDHKDHAKSLNHVLKEMLKLENRVSFMYYSFITLETGKMSTRRGNIVTLQDLVDRTYDEALKIVNEKRPDLSEEERKKIAEVIASSAVRYSIIRVSAPKPITFRWEEALNFESNSAPFIMYSHARAASILDKAPEPEQSYGMDMPKEEADLVKAMYVYPYYLKDAAQDLKPDLIAAYLISLVQKFNDFYGACRVIGTDPLTYARRIRIVKAYKQILSDAGDLIGIKMLDQM	not soluble
MGSDKIHHHHHHMSFPDVTNYYLFAQVMACGSISAASRELGLPKSTISRKMALLEQEQGTRLFHRSRSGLKLTDVGREFLVHCERLVSAAESAQQVTQRLLDKPRGKVEISAPYALSQSLLVQVLPEFMSLYPEVEIQLVVTNRPVNLIEEGIDIALRVRKNIEDSSLIARPISQAPQTLYIAPDLINQNSITEPEDLLTFEHLSMHYTNGRYGYELIHSSGLQKNIRIKPRLITDDMIVLREAAIKKLGIVALPNYLCNDAVNSGELVPVLTDWHLPIGIMHITYSHRRGILPAVRVLIDFLAEKLPHLAQQQF	not soluble
